Experiments:
GLP-1R in pancreas = molecular target: T1, GLP-1R in pancreas (Mus musculus, UniProt O35659); assay: Dynamic PET/CT imaging of ^64Cu-labeled peptides in normal mice; conditions: mouse, in vivo
T1 sequence (O35659 22-463): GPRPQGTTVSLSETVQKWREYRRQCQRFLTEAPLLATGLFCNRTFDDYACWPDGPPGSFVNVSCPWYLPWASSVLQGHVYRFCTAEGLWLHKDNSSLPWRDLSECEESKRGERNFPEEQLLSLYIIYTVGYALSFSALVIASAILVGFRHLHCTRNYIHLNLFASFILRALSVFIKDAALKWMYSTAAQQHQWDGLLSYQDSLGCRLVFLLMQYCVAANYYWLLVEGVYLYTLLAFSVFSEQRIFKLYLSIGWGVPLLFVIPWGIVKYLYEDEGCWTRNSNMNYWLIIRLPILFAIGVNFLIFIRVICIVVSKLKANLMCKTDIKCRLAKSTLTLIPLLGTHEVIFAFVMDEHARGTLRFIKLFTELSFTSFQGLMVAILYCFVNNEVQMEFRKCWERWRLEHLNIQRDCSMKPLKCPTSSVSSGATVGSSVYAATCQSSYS
Description: Dynamic PET/CT scans were performed on a Siemens Inveon PET-CT multimodality system using normal male BABL/c mice (n=3 per peptide). Post-PET biodistribution was performed to verify the imaging findings.
In addition, D-Ala^8 was also introduced to prevent the degradation by DPP-IV.
FIG. 9 are graphs that show a comparison of contrast in pancreatic, liver and kidney microPET scans. […] Quantitative analysis based on microPET/CT 0-60 min dynamic scans, animal model: Normal BABL/c mice at 6-8 wks.

in vivo = assay: in vivo; design: species or system Sprague-Dawley rats; conditions: Sprague-Dawley, rat, iv, total radioactivity
Description: Given this encouraging in vitro result, the tissue distribution of both conjugates in normal Sprague-Dawley rats was examined. […] The radiolabeled compounds were diluted with saline and be injected into rats (n=4 at each time point) via the tail vein. The animal number at each time point was chosen for statistical analysis. […] At the selected post-injection time points, animals were sacrificed, and organs of interest removed, weighed, and counted. The percent injected dose per gram (% ID/g) and percent injected dose per organ (% ID/organ) was calculated by comparison to a weighed, counted standard. Pharmacokinetic parameters were estimated by using either one- or two-compartment model.

CC[C@H](C)[C@H](NC(=O)[C@H](Cc1ccccc1)NC(=O)[C@H](CCC(=O)O)NC(=O)[C@H](CCCCN)NC(=O)[C@H](C)NC(=O)[C@H](C)NC(=O)[C@H](CCC(N)=O)NC(=O)CNC(=O)[C@H](CCC(=O)O)NC(=O)[C@H](CC(C)C)NC(=O)[C@H](Cc1ccc(O)cc1)NC(=O)[C@H](CO)NC(=O)[C@H](CO)NC(=O)[C@@H](NC(=O)[C@H](CC(=O)O)NC(=O)[C@H](CO)NC(=O)[C@@H](NC(=O)[C@H](Cc1ccccc1)NC(=O)[C@@H](NC(=O)CNC(=O)[C@H](CCC(=O)O)NC(=O)[C@@H](C)NC(=O)[C@@H](N)Cc1c[nH]cn1)[C@@H](C)O)[C@@H](C)O)C(C)C)C(=O)N[C@@H](C)C(=O)N[C@@H](Cc1c[nH]c2ccccc12)C(=O)N[C@@H](CC(C)C)C(=O)N[C@H](C(=O)N[C@@H](CCCCN)C(=O)NCC(=O)N[C@@H](CCCNC(=N)N)C(=O)NCCCCCC(=O)N[C@@H](CSC1CC(=O)N(CCNC(=O)CN2CCN(CC(=O)O)CCN(CC(=O)O)CCN(CC(=O)O)CC2)C1=O)C(N)=O)C(C)C (stereo partly drawn) (64Cu complex, metal not drawn) [D-GLP-1, [D-Ala^8]GLP-1-Ahx-Cys]
clearance from the pancreas (GLP-1R in pancreas): < 10 min
tissue uptake at 20 min (in vivo; % ID/g blood): 0.91 ± 0.39 %ID/g
tissue uptake at 1 h (in vivo; % ID/g blood): 0.41 ± 0.07 %ID/g
tissue uptake at 4 h (in vivo; % ID/g blood): 0.45 ± 0.02 %ID/g
tissue uptake at 24 h (in vivo; % ID/g blood): 0.14 ± 0.08 %ID/g
tissue uptake at 20 min (in vivo; % ID/g fat): 0.44 ± 0.6 %ID/g
tissue uptake at 1 h (in vivo; % ID/g fat): 0.28 ± 0.4 %ID/g
tissue uptake at 4 h (in vivo; % ID/g fat): 0.96 ± 0.88 %ID/g
tissue uptake at 24 h (in vivo; % ID/g fat): 0.78 ± 0.14 %ID/g
tissue uptake at 20 min (in vivo; % ID/g heart): 0.64 ± 0.16 %ID/g
tissue uptake at 1 h (in vivo; % ID/g heart): 0.46 ± 0.21 %ID/g
tissue uptake at 4 h (in vivo; % ID/g heart): 0.15 ± 0.09 %ID/g
tissue uptake at 24 h (in vivo; % ID/g heart): 0.04 ± 0.05 %ID/g
tissue uptake at 20 min (in vivo; % ID/g kidney): 19.6 ± 0.91 %ID/g
tissue uptake at 1 h (in vivo; % ID/g kidney): 28.2 ± 5.83 %ID/g
tissue uptake at 4 h (in vivo; % ID/g kidney): 30.7 ± 9.53 %ID/g
tissue uptake at 24 h (in vivo; % ID/g kidney): 46.1 ± 10.9 %ID/g
tissue uptake at 20 min (in vivo; % ID/g large int): 0.45 ± 0.2 %ID/g
tissue uptake at 1 h (in vivo; % ID/g large int): 0.67 ± 0.7 %ID/g
tissue uptake at 4 h (in vivo; % ID/g large int): 0.77 ± 0.18 %ID/g
tissue uptake at 24 h (in vivo; % ID/g large int): 2.01 ± 0.02 %ID/g
tissue uptake at 20 min (in vivo; % ID/g liver): 2.69 ± 1.16 %ID/g
tissue uptake at 1 h (in vivo; % ID/g liver): 1.17 ± 0.45 %ID/g
tissue uptake at 4 h (in vivo; % ID/g liver): 1.56 ± 0.14 %ID/g
tissue uptake at 24 h (in vivo; % ID/g liver): 2.26 ± 0.16 %ID/g
tissue uptake at 20 min (in vivo; % ID/g lung): 4.03 ± 1.64 %ID/g
tissue uptake at 1 h (in vivo; % ID/g lung): 0.91 ± 0.12 %ID/g
tissue uptake at 4 h (in vivo; % ID/g lung): 0.77 ± 0.18 %ID/g
tissue uptake at 24 h (in vivo; % ID/g lung): 1.21 ± 0.3 %ID/g
tissue uptake at 20 min (in vivo; % ID/g muscle): 0.3 ± 0.15 %ID/g
tissue uptake at 1 h (in vivo; % ID/g muscle): 0.63 ± 0.05 %ID/g
tissue uptake at 4 h (in vivo; % ID/g muscle): 0.11 ± 0.13 %ID/g
tissue uptake at 24 h (in vivo; % ID/g muscle): 0.39 ± 0.29 %ID/g
tissue uptake at 20 min (in vivo; % ID/g pancreas): 3.58 ± 0.56 %ID/g
tissue uptake at 1 h (in vivo; % ID/g pancreas): 2.19 ± 0.98 %ID/g
tissue uptake at 4 h (in vivo; % ID/g pancreas): 1.18 ± 0.12 %ID/g
tissue uptake at 24 h (in vivo; % ID/g pancreas): 0.99 ± 0.05 %ID/g
tissue uptake at 20 min (in vivo; % ID/g small int): 1.07 ± 0.73 %ID/g
tissue uptake at 1 h (in vivo; % ID/g small int): 1.02 ± 0.75 %ID/g
tissue uptake at 4 h (in vivo; % ID/g small int): 0.5 ± 0.25 %ID/g
tissue uptake at 24 h (in vivo; % ID/g small int): 0.91 ± 0.31 %ID/g
tissue uptake at 20 min (in vivo; % ID/g spleen): 0.22 ± 0.05 %ID/g
tissue uptake at 1 h (in vivo; % ID/g spleen): 0.23 ± 0.05 %ID/g
tissue uptake at 4 h (in vivo; % ID/g spleen): 0.26 ± 0.2 %ID/g
tissue uptake at 24 h (in vivo; % ID/g spleen): 0.52 ± 0.18 %ID/g
tissue uptake at 20 min (in vivo; % ID/g stomach): 1.02 ± 0.51 %ID/g
tissue uptake at 1 h (in vivo; % ID/g stomach): 0.49 ± 0.31 %ID/g
tissue uptake at 4 h (in vivo; % ID/g stomach): 0.23 ± 0.07 %ID/g
tissue uptake at 24 h (in vivo; % ID/g stomach): 0.25 ± 0.17 %ID/g

CC[C@H](C)[C@H](NC(=O)[C@H](Cc1ccccc1)NC(=O)[C@H](CCC(=O)O)NC(=O)[C@H](CCCCN)NC(=O)[C@H](C)NC(=O)[C@H](C)NC(=O)[C@H](CCC(N)=O)NC(=O)CNC(=O)[C@H](CCC(=O)O)NC(=O)[C@H](CC(C)C)NC(=O)[C@H](Cc1ccc(O)cc1)NC(=O)[C@H](CO)NC(=O)[C@H](CO)NC(=O)[C@@H](NC(=O)[C@H](CC(=O)O)NC(=O)[C@H](CO)NC(=O)[C@@H](NC(=O)[C@H](Cc1ccccc1)NC(=O)[C@@H](NC(=O)CNC(=O)[C@H](CCC(=O)O)NC(=O)[C@H](C)NC(=O)[C@@H](N)Cc1c[nH]cn1)[C@@H](C)O)[C@@H](C)O)C(C)C)C(=O)N[C@@H](C)C(=O)N[C@@H](Cc1c[nH]c2ccccc12)C(=O)N[C@@H](CC(C)C)C(=O)N[C@H](C(=O)N[C@@H](CCCCN)C(=O)NCC(=O)N[C@@H](CCCNC(=N)N)C(=O)NCCCCCC(=O)N[C@@H](CSC1CC(=O)N(CCNC(=O)CN2CCN(CC(=O)O)CCN(CC(=O)O)CCN(CC(=O)O)CC2)C1=O)C(N)=O)C(C)C (stereo partly drawn) (64Cu complex, metal not drawn) [L-GLP-1, [Ala^8]GLP-1-Ahx-Cys]
tissue uptake at 20 min (in vivo; % ID/g blood): 0.78 ± 0.14 %ID/g
tissue uptake at 1 h (in vivo; % ID/g blood): 0.47 ± 0.03 %ID/g
tissue uptake at 4 h (in vivo; % ID/g blood): 0.62 ± 0.15 %ID/g
tissue uptake at 24 h (in vivo; % ID/g blood): 0.07 ± 0.07 %ID/g
tissue uptake at 20 min (in vivo; % ID/g fat): 0.35 ± 0.1 %ID/g
tissue uptake at 4 h (in vivo; % ID/g fat): 0.72 ± 0.57 %ID/g
tissue uptake at 24 h (in vivo; % ID/g fat): 0.01 ± 0.01 %ID/g
tissue uptake at 20 min (in vivo; % ID/g heart): 0.39 ± 0.23 %ID/g
tissue uptake at 1 h (in vivo; % ID/g heart): 0.11 ± 0.1 %ID/g
tissue uptake at 4 h (in vivo; % ID/g heart): 0.2 ± 0.06 %ID/g
tissue uptake at 20 min (in vivo; % ID/g kidney): 30.6 ± 6.76 %ID/g
tissue uptake at 1 h (in vivo; % ID/g kidney): 34.3 ± 5.42 %ID/g
tissue uptake at 4 h (in vivo; % ID/g kidney): 41.4 ± 4.98 %ID/g
tissue uptake at 24 h (in vivo; % ID/g kidney): 45.8 ± 2.94 %ID/g
tissue uptake at 20 min (in vivo; % ID/g large int): 0.19 ± 0.1 %ID/g
tissue uptake at 1 h (in vivo; % ID/g large int): 0.04 ± 0.04 %ID/g
tissue uptake at 4 h (in vivo; % ID/g large int): 0.67 ± 0.47 %ID/g
tissue uptake at 24 h (in vivo; % ID/g large int): 4.83 ± 1.16 %ID/g
tissue uptake at 20 min (in vivo; % ID/g liver): 1.13 ± 0.42 %ID/g
tissue uptake at 1 h (in vivo; % ID/g liver): 2.03 ± 0.25 %ID/g
tissue uptake at 4 h (in vivo; % ID/g liver): 3.34 ± 0.58 %ID/g
tissue uptake at 24 h (in vivo; % ID/g liver): 1.43 ± 0.21 %ID/g
tissue uptake at 20 min (in vivo; % ID/g lung): 1.92 ± 0.08 %ID/g
tissue uptake at 1 h (in vivo; % ID/g lung): 0.9 ± 0.14 %ID/g
tissue uptake at 4 h (in vivo; % ID/g lung): 1.02 ± 0.13 %ID/g
tissue uptake at 24 h (in vivo; % ID/g lung): 0.83 ± 0.18 %ID/g
tissue uptake at 20 min (in vivo; % ID/g muscle): 0.12 ± 0.01 %ID/g
tissue uptake at 24 h (in vivo; % ID/g muscle): 0.08 ± 0.1 %ID/g
tissue uptake at 20 min (in vivo; % ID/g pancreas): 0.34 ± 0.14 %ID/g
tissue uptake at 1 h (in vivo; % ID/g pancreas): 0.11 ± 0.11 %ID/g
tissue uptake at 4 h (in vivo; % ID/g pancreas): 0.4 ± 0.56 %ID/g
tissue uptake at 24 h (in vivo; % ID/g pancreas): 0.03 ± 0.06 %ID/g
tissue uptake at 20 min (in vivo; % ID/g small int): 0.38 ± 0.21 %ID/g
tissue uptake at 1 h (in vivo; % ID/g small int): 0.45 ± 0.24 %ID/g
tissue uptake at 4 h (in vivo; % ID/g small int): 0.93 ± 0.43 %ID/g
tissue uptake at 24 h (in vivo; % ID/g small int): 0.42 ± 0.16 %ID/g
tissue uptake at 20 min (in vivo; % ID/g spleen): 0.28 ± 7 %ID/g
tissue uptake at 1 h (in vivo; % ID/g spleen): 0.18 ± 0.08 %ID/g
tissue uptake at 4 h (in vivo; % ID/g spleen): 0.4 ± 0.35 %ID/g
tissue uptake at 24 h (in vivo; % ID/g spleen): 0.38 ± 0.47 %ID/g
tissue uptake at 20 min (in vivo; % ID/g stomach): 0.64 ± 0.28 %ID/g
tissue uptake at 1 h (in vivo; % ID/g stomach): 0.46 ± 0.28 %ID/g
tissue uptake at 4 h (in vivo; % ID/g stomach): 0.5 ± 0.15 %ID/g
tissue uptake at 24 h (in vivo; % ID/g stomach): 0.11 ± 0.04 %ID/g
